# Bridge positions count the residues as written; N and C are the ends. Square brackets hold non-standard residues; d marks the D form. Primed or numbered codes have the meaning given here. Side chains are listed from the residue outwards. Ends that are not written are not given here. Gd^D = GdDOTAGA (gadolinium DOTAGA chelate); Bip = N[C@@H](Cc1ccc(-c2ccccc2)cc1)C(=O)O; Gd^T(3) = GdDTPA attached via thiourea; Phg = N[C@H](C(=O)O)c1ccccc1; Dab = NCC[C@H](N)C(=O)O; Gd^T″ = GdDTPA-thiourea; Dap = NC[C@H](N)C(=O)O
# B1: SEQ ID NO 5 (peptide)
# peptide: NWKCWGVVKWECIWA
# modifications: disulfide 4-12 (inferred)
# notes: cyclic, disulfide
# B2: SEQ ID NO 101 (peptide)
# peptide: WWTCHMTWSGQWDSCKWH
# modifications: disulfide 4-15 (inferred)
# notes: cyclic, disulfide
# B3: SEQ ID NO 97 (peptide)
# peptide: WISCESSEEKISYCWRA
# modifications: disulfide 4-14 (inferred)
# notes: cyclic, disulfide
# B4: SEQ ID NO 96 (peptide)
# peptide: WQLCSSRNDHVAYCFVS
# modifications: disulfide 4-14 (inferred)
# notes: cyclic, disulfide
# B5: SEQ ID NO 102 (peptide)
# peptide: WAYCMTDPSGKYRYCQNW
# modifications: disulfide 4-15 (inferred)
# notes: cyclic, disulfide
# B6: SEQ ID NO 93 (peptide)
# peptide: WWACQKGQHDWEKCHWL
# modifications: disulfide 4-14 (inferred)
# notes: cyclic, disulfide
# B7: SEQ ID NO 100 (peptide)
# peptide: WWGCRQGTGEHWSHCMWF
# modifications: disulfide 4-15 (inferred)
# notes: cyclic, disulfide
# B8: SEQ ID NO 94 (peptide)
# peptide: WTDCQWMDEQLWTCRWD
# modifications: disulfide 4-14 (inferred)
# notes: cyclic, disulfide
# B9: SEQ ID NO 95 (peptide)
# peptide: WTDCQWMDEQIWTCRWD
# modifications: disulfide 4-14 (inferred)
# notes: cyclic, disulfide
# B10: Compound ID 1015 (peptide)
# peptide: {Gd^D}-K(Gd^D)K(Gd^D)GWHCYTYFPHHYCTYG
# modifications: disulfide 6-15 (inferred)
# B11: Compound ID 1010 (peptide)
# peptide: {Gd^T″}-GK([Gly-Gd^T″])WHCYTK(Gd^T″)FPHHYCVYYY
# modifications: disulfide 5-14 (inferred)
# B12: Compound ID 1006 (peptide)
# peptide: {Gd^T″}-GK([Gly-Gd^T″])WHCYT[Dap](Gd^T″)FPHHYCVY[Bip]
# modifications: disulfide 5-14
# B13: Compound ID 977 (peptide)
# peptide: {Gd^T(3)}-GK([Gly-Gd^T(3)])WHCTTYFPHHYCLY[Bip]K(Gd^T(3))
# modifications: disulfide 5-14; not fully specified (C-terminus)
# B14: Compound ID 986 (peptide)
# peptide: {Gd^T(3)}-GK([Gly-Gd^T(3)])WHCYTYFPHHYCLY[Phg]K(Gd^T(3))
# modifications: disulfide 5-14; not fully specified (C-terminus)
# B15: Compound ID 1002 (peptide)
# peptide: {Gd^T″}-[Dap](Gd^T″)[Dap]([Dap-Gd^T″-Gd^T″])WHCYTYFPHHYCVYG
# modifications: disulfide 5-14; also: X2: inner Dap bears two Gd^T
# B16: Compound ID 974 (peptide)
# peptide: {Gd^T″}-GK([Gly-Gd^T″])WHCYTYFPHHYCVYGK(Gd^T″)
# modifications: disulfide 5-14 (inferred); not fully specified (C-terminus)
# B17: Compound ID 987 (peptide)
# peptide: {Gd^T″}-GK([Gly-Gd^T″])WHCYTYFPHHYCLYYK(Gd^T″)
# modifications: disulfide 5-14 (inferred); not fully specified (C-terminus)
# B18: Compound ID 975 (peptide)
# peptide: {Gd^T″}-GK([Gly-Gd^T″])WHCYTYFPHHYCVYYK(Gd^T″)
# modifications: disulfide 5-14 (inferred); not fully specified (C-terminus)
# B19: Compound ID 995 (peptide)
# peptide: {Gd^T″}-GK([Gly-Gd^T″])WHCYTK(Gd^T″)FPHHYCLYGK(Gd^T″)
# modifications: disulfide 5-14 (inferred)
# B20: Compound ID 988 (peptide)
# peptide: {Gd^T″}-GK([Gly-Gd^T″])WHCYTYFPHHYCLY[dY]K(Gd^T″)
# modifications: disulfide 5-14 (inferred); not fully specified (C-terminus)
# B21: Compound ID 993 (peptide)
# peptide: {Gd^T″}-GQWHCYTK(Gd^T″)FPHHYCLYGK(Gd^T″)
# modifications: disulfide 5-14 (inferred); not fully specified (C-terminus)
# B22: Compound ID 985 (peptide)
# peptide: {Gd^T″}-GK([Gly-Gd^T″])WHCYTYFPHHYCLYFK(Gd^T″)
# modifications: disulfide 5-14 (inferred); not fully specified (C-terminus)
# B23: Compound ID 989 (peptide)
# peptide: {Gd^T″}-GK([Gly-Gd^T″])WHCYTYFPHHYCLYVK(Gd^T″)
# modifications: disulfide 5-14 (inferred); not fully specified (C-terminus)
# B24: Compound ID 994 (peptide)
# peptide: {Gd^T″}-GQWHCYTYFPHHYCLYGK(Gd^T″)
# modifications: disulfide 5-14 (inferred); not fully specified (C-terminus)
# B25: Compound ID 976 (peptide)
# peptide: {Gd^T″}-GK([Gly-Gd^T″])WHCTTYFPHHYCLYYK(Gd^T″)
# modifications: disulfide 5-14 (inferred); not fully specified (C-terminus)
# B26: Compound ID 1005 (peptide)
# peptide: {Gd^T″}-GK([Gly-Gd^T″])WHCYT[Dab](Gd^T″)FPHHYCVY[Bip]
# modifications: disulfide 5-14
# B27: Compound ID 1001 (peptide)
# peptide: {Gd^D}-GK([Gly-Gd^D])WHCTTK(Gd^D)FPHHYCLY[Bip]
# modifications: disulfide 5-14
# B28: Compound ID 1004 (peptide)
# peptide: {Gd^T″}-GK([Gly-Gd^T″])WHCYTK(Gd^T″)FPHHYCVY[Bip]
# modifications: disulfide 5-14
# B29: Compound ID 1012 (peptide)
# peptide: {Gd^T″}-GK([Gly-Gd^T″])WHCYTK(Gd^T″)FPHHYCK(Gd^T″)Y[Bip]
# modifications: disulfide 5-14
# B30: Compound ID 981 (peptide)
# peptide: {Gd^T″}-GYK([Tyr-Gly-Gd^T″])WHCTTYFPHHYCLYG
# modifications: disulfide 6-15 (inferred); not fully specified (C-terminus)
# B31: Compound ID 982 (peptide)
# peptide: {Gd^T″}-GVK([Val-Gly-Gd^T″])WHCTTYFPHHYCLYG
# modifications: disulfide 6-15 (inferred); not fully specified (C-terminus)
# B32: Compound ID 984 (peptide)
# peptide: {Gd^T″}-GHK([His-Gly-Gd^T″])WHCTTYFPHHYCLYG
# modifications: disulfide 6-15 (inferred); not fully specified (C-terminus)
# B33: Compound ID 983 (peptide)
# peptide: {Gd^T″}-GFK([Phe-Gly-Gd^T″])WHCTTYFPHHYCLYG
# modifications: disulfide 6-15 (inferred); not fully specified (C-terminus)
# B34: Compound ID 1007 (peptide)
# peptide: {Gd^T″}-G[Dab]([Gly-Gd^T″])WHCYTK(Gd^T″)FPHHYCVY[Bip]
# modifications: disulfide 5-14
# B35: Compound ID 1008 (peptide)
# peptide: {Gd^T″}-K(Gd^T″)WHCYTK(Gd^T″)FPHHYCVY[Bip]
# modifications: disulfide 4-13
# B36: Compound ID 1009 (peptide)
# peptide: {Gd^T″}-GK([Gly-Gd^T″])WHCYTK(Gd^T″)FPHHYCVY[Bip]R
# modifications: disulfide 5-14
# B37: Compound ID 1016 (peptide)
# peptide: {Gd^D}-K(Gd^D)K(Gd^D)AWHCYTYFPHHYCVYG
# modifications: disulfide 6-15 (inferred)
# B38: Compound ID 1017 (peptide)
# peptide: {Gd^D}-K(Gd^D)K(Gd^D)LWHCYTYFPHHYCVYG
# modifications: disulfide 6-15 (inferred)
# B39: Compound ID 1018 (peptide)
# peptide: {Gd^D}-K(Gd^D)K(Gd^D)YWHCYTYFPHHYCVYG
# modifications: disulfide 6-15 (inferred)
# Biological target: T1, human collagen type I, acid soluble, extracted from placenta (Sigma C7774) (human, UniProt P02452 162-1218; P08123 80-1119)
# T1 construct: tissue extract, gelled and dried in wells; also called dried human collagen; h-Collagen
# Assay: dried collagen assay
# Experimental: An additional 90 μL is reserved in a HPLC glass vial as a measure of the total concentration.
# T1 sequence (P02452 162-1218 limits assumed, chain 1 of 2): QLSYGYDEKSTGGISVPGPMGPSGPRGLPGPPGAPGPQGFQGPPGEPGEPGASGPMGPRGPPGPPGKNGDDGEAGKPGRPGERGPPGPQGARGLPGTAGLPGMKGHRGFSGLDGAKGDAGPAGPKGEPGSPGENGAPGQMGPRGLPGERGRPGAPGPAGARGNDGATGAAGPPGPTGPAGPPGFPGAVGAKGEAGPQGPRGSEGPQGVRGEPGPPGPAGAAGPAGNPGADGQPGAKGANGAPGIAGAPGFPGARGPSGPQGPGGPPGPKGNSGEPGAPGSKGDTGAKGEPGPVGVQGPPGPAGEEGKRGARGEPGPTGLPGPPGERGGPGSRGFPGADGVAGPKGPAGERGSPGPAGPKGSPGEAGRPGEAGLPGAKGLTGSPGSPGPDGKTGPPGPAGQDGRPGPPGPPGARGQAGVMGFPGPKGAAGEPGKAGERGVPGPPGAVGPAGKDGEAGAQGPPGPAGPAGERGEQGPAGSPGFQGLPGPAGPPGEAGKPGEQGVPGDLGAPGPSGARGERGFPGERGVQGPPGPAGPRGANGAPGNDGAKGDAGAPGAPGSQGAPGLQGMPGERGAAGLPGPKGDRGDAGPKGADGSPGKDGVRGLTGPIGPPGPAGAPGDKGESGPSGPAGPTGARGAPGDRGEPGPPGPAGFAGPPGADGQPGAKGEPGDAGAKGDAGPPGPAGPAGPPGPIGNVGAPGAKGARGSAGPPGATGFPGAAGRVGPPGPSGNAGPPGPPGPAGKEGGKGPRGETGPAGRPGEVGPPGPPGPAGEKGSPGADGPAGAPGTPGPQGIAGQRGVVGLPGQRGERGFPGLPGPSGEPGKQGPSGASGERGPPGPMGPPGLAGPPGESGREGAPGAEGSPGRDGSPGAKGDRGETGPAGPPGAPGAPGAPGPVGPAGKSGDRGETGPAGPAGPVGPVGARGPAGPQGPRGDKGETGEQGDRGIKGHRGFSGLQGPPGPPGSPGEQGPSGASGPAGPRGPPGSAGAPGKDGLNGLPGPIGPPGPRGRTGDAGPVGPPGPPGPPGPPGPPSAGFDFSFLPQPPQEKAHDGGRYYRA
# T1 sequence (P08123 80-1119 limits assumed, chain 2 of 2): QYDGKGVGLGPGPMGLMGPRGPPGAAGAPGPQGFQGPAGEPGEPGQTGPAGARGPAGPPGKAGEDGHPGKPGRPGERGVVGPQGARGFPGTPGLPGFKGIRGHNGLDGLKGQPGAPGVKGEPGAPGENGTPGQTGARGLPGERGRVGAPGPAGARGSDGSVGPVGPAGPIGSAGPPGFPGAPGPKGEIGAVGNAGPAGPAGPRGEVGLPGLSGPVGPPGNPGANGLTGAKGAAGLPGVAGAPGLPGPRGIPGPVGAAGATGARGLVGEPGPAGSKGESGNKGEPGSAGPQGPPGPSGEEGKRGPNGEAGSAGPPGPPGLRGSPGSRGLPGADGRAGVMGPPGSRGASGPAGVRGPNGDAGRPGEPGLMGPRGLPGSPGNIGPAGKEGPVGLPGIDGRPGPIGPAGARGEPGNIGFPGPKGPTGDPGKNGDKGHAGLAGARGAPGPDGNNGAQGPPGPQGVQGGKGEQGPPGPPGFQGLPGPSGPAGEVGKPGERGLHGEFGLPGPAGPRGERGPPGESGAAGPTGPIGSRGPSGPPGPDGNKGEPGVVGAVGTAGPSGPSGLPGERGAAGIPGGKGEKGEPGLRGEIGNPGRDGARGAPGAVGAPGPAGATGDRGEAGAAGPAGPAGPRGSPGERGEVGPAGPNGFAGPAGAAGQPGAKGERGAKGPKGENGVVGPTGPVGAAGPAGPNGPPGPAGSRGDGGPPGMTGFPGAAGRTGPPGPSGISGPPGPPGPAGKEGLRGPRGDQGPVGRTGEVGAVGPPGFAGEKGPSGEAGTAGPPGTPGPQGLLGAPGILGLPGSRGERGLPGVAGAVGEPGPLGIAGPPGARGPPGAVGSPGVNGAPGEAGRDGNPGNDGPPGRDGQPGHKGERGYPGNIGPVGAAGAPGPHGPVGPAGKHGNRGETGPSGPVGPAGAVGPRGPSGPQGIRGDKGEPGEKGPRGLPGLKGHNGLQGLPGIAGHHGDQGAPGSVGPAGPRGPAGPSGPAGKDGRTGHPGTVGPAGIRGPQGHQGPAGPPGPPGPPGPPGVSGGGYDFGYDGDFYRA
row,Binder,% bound
1,B1,24%
2,B2,56%
3,B3,13%
4,B4,17%
5,B5,31%
6,B6,5%
7,B7,67%
8,B8,21%
9,B9,5%

# Biological target: T1, human collagen type I, acid soluble, …
# Assay: dried collagen assay
# Remark: another data set of the same source
row,Binder,% bound
1,B10,29%
2,B11,92%
3,B12,89%
4,B13,40%
5,B14,60%
6,B15,44%
7,B16,71%
8,B17,62%
9,B18,70%
10,B19,51%
11,B20,69%
12,B21,75%
13,B22,56%
14,B23,67%
15,B24,86%
16,B25,62%
17,B26,90%
18,B27,83%
19,B28,91%
20,B29,91%
21,B30,73%
22,B31,40%
23,B32,67%
24,B33,58%
25,B34,87%
26,B35,94%
27,B36,93%
28,B37,48%
29,B38,25%
30,B39,53%

# Biological target: T2, rat collagen, acid soluble, type I, rat tail (Upstate 08-115) (rat, UniProt P02454 152-1207; P02466 86-1125)
# T2 construct: tissue extract, gelled and dried in wells; also called dried rat collagen
# Assay: dried collagen assay
# T2 sequence (P02454 152-1207, chain 1 of 2): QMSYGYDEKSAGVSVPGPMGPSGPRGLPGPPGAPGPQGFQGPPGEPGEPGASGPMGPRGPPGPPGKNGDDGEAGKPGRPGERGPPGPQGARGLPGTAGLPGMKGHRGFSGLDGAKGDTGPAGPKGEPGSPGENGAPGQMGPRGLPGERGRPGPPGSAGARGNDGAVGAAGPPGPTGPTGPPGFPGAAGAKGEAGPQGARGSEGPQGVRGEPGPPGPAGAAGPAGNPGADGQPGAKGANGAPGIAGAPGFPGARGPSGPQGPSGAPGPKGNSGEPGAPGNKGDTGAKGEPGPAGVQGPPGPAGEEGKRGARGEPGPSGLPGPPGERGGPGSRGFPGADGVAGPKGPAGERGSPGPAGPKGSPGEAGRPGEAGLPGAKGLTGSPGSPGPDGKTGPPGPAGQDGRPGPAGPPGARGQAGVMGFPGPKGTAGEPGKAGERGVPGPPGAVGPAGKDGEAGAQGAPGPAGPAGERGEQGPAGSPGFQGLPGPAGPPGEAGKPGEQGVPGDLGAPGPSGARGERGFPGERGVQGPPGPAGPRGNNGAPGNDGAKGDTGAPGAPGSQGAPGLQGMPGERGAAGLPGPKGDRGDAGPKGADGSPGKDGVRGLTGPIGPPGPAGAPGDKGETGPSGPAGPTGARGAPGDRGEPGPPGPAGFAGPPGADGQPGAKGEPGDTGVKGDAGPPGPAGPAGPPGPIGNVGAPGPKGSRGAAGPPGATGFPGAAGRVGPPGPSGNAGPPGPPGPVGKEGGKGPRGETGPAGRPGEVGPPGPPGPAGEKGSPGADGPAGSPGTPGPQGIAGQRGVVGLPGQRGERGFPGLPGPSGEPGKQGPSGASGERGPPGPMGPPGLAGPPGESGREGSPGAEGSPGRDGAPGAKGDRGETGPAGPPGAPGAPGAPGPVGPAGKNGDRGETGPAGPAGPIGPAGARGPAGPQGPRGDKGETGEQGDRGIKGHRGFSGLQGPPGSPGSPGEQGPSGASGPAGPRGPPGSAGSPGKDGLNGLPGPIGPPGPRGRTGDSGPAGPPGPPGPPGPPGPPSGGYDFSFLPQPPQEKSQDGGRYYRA
# T2 sequence (P02466 86-1125, chain 2 of 2): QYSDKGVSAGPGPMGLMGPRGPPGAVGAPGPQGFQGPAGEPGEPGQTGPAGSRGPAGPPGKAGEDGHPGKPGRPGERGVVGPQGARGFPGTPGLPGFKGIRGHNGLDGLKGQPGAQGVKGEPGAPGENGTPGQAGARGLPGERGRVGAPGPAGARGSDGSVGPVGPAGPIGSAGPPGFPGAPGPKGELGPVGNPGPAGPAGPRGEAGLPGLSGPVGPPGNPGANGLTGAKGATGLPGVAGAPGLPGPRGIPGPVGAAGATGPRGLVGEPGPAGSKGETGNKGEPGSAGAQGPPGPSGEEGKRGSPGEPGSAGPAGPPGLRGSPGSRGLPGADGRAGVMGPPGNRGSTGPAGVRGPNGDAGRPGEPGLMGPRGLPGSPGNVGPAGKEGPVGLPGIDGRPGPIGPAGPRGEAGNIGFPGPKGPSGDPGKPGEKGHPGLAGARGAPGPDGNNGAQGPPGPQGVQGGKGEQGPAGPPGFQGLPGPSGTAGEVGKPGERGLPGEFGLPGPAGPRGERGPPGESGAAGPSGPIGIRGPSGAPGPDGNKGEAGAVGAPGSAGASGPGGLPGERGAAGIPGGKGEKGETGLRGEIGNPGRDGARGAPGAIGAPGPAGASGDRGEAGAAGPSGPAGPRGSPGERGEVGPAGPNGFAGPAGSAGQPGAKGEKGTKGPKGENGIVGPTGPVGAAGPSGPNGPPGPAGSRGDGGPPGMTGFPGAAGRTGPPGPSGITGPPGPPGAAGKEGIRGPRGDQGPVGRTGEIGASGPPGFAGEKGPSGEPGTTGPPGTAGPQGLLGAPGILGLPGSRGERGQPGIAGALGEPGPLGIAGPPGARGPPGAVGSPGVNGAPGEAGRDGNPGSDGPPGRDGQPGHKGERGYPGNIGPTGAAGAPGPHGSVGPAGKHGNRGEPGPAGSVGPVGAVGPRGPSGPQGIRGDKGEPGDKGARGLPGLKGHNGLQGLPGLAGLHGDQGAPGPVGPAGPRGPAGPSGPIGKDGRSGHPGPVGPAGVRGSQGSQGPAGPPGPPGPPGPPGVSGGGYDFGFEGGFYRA
row,Binder,% bound
1,B10,30%
2,B11,89%
3,B12,87%
4,B13,43%
5,B14,67%
6,B15,45%
7,B16,69%
8,B17,68%
9,B18,64%
10,B19,42%
11,B20,71%
12,B21,70%
13,B22,68%
14,B23,74%
15,B24,84%
16,B25,57%
17,B26,95%
18,B27,81%
19,B28,90%
20,B29,92%
21,B30,81%
22,B31,47%
23,B32,69%
24,B33,59%
25,B34,92%
26,B35,93%
27,B36,96%
28,B37,50%
29,B38,18%
30,B39,55%
